# Article PMC3032881
# Read-outs that look alike come from different tables or passages of the source.
# What was measured:
# [1] = biological target: HLA A*0201 on the surface of TAP deficient T2 cells (human (endogenous in T2 cells)); test: flow cytometry on cells; T2-binding assay: TAP deficient T2 cells with peptide at 100, 50, 10 and 1 μM in AIM-V, 10 min 37 °C, room temperature overnight, 2 h 37 °C; surface HLA A*0201 stained with anti-human HLA A*0201:RPE; MFI fitted (log(agonist) vs. response) to logEC50
# [2] = biological target: soluble recombinant HLA A*0201 (α chain tagged with a biotinylation sequence, with β2m); test: SPR; real time pMHC stability assay, BIAcore 3000, CM5 chip; ~500 RU of biotinylated refolded pMHCI immobilised on streptavidin; flow 10 μl/min for 15,000 s; Langmuir dissociation analysis converted to half-life
# [3] = biological target: HLA A*0201 on the surface of TAP deficient T2 cells (human (endogenous in T2 cells)); test: flow cytometry on cells; T2-binding assay: TAP deficient T2 cells with peptide at 100, 50, 10 and 1 μM in AIM-V, 10 min 37 °C, room temperature overnight, 2 h 37 °C; surface HLA A*0201 stained with anti-human HLA A*0201:RPE; MFI fitted (log(agonist) vs. response) to logEC50; remark: listed apart in the source
# [4] = biological target: soluble recombinant HLA A*0201 (α chain tagged with a biotinylation sequence, with β2m); test: SPR; real time pMHC stability assay, BIAcore 3000, CM5 chip; ~500 RU of biotinylated refolded pMHCI immobilised on streptavidin; flow 10 μl/min for 15,000 s; Langmuir dissociation analysis converted to half-life; remark: listed apart in the source
Binder,LogEC50 [1] [M],half-life [2] [h],LogEC50 [3] [M],half-life [4] [h],koff [4] [s⁻¹]
YLEPGPVTA (modifications not checked) [gp100 280-288 peptide YLEPGPVA],-3.59,5.8,–,–,–
SLLMWITQL [NY-ESO-1 157-165 heteroclitic peptide …],–,–,-4.37,10.1,1.9e-05
